Assay [1] deals with CCR7 and CD20 expressing JVM2 cells. As to the kind of experiment: surrogate ADCC reporter assay (Jurkat-V158 effector cells). The assay is classed as cell-based. Particulars: JVM2 target cells and Jurkat-V158 effector cells. On the procedure:
Capacity of candidate antibodies to mediate ADCC was assessed using a surrogate ADCC reporter assay. CCR7 and CD20 expressing JVM2 cells were used as target cells. JVM2 cells were washed and re-suspended at 8×10^4 cells/ml cells/ml. Effector cells in this assay were a Jurkat cell line stably expressing CD16V158 and an NFAT dependent luciferase reporter (Jurkat-V158); expression of luciferase is a surrogate for canonical ADCC signaling through CD16. Briefly, Jurkat-V158 cells grown in suspension were spun down to remove spent media, the pellet was resuspended in assay media and adjusted to 1.6×10^6 cells/ml cells/mL. Mix equal volumes of effector and target cells to make a master mix of cells yielding a target to effector cell ratio of 1:5 or 1:20. A titration of antibody was diluted in assay media with a final top concentration of 50 ug/mL in the assay well. 12.5 uL of Ab solution was added to a 384 well round bottom plate and then 12.5 ul of the master cell mix was added. Antibody and cells were mixed well by pipetting and incubated for 4 hours at 37° C. in 5% CO2. Following incubation, 15 uL of Bright Glo substrate (Promega #G7572) was added to each well and shaken for 5 min at RT at 1050 rpm. Luminescent signal was read on the Envision plate reader (Perkin Elmer). […]
(In general: In a reporter assay the amount or activity of a reporter protein is the signal.)

Assay [2] concerns the target T1, human CCR7 (NIH3T3.hCCR7 cells) (Homo sapiens, UniProt P32248).
T1 construct: Full length human, cyno and mouse CCR7 genes were synthesized; expressed in transfected cells; host or cells: NIH/3T3 (retroviral transduction)
T1 sequence (P32248 25-378): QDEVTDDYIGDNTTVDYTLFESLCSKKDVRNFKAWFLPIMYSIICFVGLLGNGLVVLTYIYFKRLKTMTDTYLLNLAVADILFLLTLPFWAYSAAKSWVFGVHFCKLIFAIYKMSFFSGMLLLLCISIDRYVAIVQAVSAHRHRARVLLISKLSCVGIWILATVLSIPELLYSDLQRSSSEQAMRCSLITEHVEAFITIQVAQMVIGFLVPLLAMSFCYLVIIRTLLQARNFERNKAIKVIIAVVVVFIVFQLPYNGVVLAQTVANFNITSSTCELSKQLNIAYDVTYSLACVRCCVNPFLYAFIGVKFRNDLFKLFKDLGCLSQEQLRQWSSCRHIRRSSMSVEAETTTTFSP
As to the kind of experiment: FACS binding to cell surface expressed CCR7. As to the method:
(§1) The affinity of various antibodies and ADCs to CCR7 and its species orthologues was determined using FACS. Purified IgGs were titrated to determine EC50 values for binding to cell surface expressed CCR7.
(§2) For this purpose, CCR7 positive cells were harvested (adherent cells were detached with Accutase), washed twice with FACS buffer (PBS/3% FCS/0.02% sodium azide) and diluted to approximately 2×10^6 cells/ml in FACS buffer. All subsequent steps were done on ice to prevent internalization of the receptor. 100 μl cell suspension/well were transferred into 96-well U-bottom plates (Falcon). 2×10^5 cells/well were incubated with a serial dilution of antibody concentrations of the anti-CCR7 antibody-of-interest ranging across several logs, starting at a high of 100 nM for 60 minutes at 4° C., gently shaking. […] After a final wash, cells were resuspended in 100 μl of FACS buffer containing 0.2 μg/ml DAPI followed by readout on the flow cytometry machine (BD LSRFortessa Cell Analyzer; Cat #647177). Mean fluorescence intensity (MFI) of live, single cells was calculated in Flowjo 10.0.8 and exported into Graphpad Prism6 for EC50 determination.
Selectivity was assessed by measuring apparent binding affinities to isogenic cell pairs engineered to overexpress CCR7 as well as cell lines expressing CCR7 paralogs, e.g., CCR9, CCR6, CXCR4 and CCR8. […]
For orientation: In flow cytometry, cells or beads pass a laser one at a time.

In the next assay the test system is NIH3T3 cells. The assay is described as follows: FACS binding, selectivity. As to the method:
as §1, §2
(§3) Selectivity was assessed by measuring apparent binding affinities to isogenic cell pairs engineered to overexpress CCR7 as well as cell lines expressing CCR7 paralogs, e.g., CCR9, CCR6, CXCR4 and CCR8.

Assay [3] concerns PF382 cells (CCR7−/CCR9+/CCR6+). The assay is described as follows: FACS binding, selectivity. As to the method: as §1, §2, §3
The target of a further assay is T2, CCR8 (CHO-CCR8) (Homo sapiens, UniProt P51685).
T2 construct: expressed in transfected cells; host or cells: CHO
T2 sequence (P51685 whole entry, species assumed): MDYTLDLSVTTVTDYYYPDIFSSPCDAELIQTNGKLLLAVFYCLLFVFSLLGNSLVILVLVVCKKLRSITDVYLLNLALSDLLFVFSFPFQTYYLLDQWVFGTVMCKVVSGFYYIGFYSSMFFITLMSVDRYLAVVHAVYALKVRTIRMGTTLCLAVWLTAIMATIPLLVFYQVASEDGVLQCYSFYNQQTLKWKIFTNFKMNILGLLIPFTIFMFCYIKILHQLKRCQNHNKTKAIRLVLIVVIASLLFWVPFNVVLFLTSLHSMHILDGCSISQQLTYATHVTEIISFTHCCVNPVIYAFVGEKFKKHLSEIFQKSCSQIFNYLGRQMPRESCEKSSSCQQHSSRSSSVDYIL
As to the kind of experiment: FACS binding, selectivity (CCR7 paralogs). As to the method: as §1, §2, §3

For the next assay, the target named is T3, CXCR4 (HEK293-CXCR4) (Homo sapiens, UniProt P61073).
T3 construct: expressed in transfected cells; host or cells: HEK293
T3 sequence (P61073 whole entry, species assumed): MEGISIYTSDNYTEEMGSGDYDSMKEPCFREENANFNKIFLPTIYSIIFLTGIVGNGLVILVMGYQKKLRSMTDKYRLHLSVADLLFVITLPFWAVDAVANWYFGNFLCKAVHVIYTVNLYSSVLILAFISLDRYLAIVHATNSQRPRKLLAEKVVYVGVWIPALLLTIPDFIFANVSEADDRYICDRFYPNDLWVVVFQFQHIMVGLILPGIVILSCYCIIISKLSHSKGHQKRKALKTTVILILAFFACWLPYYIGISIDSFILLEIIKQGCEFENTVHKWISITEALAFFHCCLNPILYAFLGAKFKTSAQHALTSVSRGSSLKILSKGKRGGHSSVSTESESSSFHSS
The assay is described as follows: FACS binding, selectivity (CCR7 paralogs). As to the method: as §1, §2, §3

Another assay deals with DEL. As to the kind of experiment: ADC cell viability assay (CellTiter-Glo, four days). The assay is classed as cell-based. The note with it: CCR7 receptor levels ~100,000. On the procedure:
(§4) Cytotoxic effects after binding of directly conjugated antibodies (ADCs) with various payloads and their internalization into CCR7(+) cells were studied by assessing cell viability after four days of treatment. Three fold dilutions of the ADCs were added to 384-well bottom white plates in triplicates ([…]). […] Cells were harvested (adherent cells were detached with Accutase) and resuspended to approximately 2×10^4 cells/ml. Cells were added to 384-well plates on top of the antibody (20 μl/well). The plates were incubated for four days at 37° C. and 5% CO2. Subsequently, 20 µl/well of CellTiter-Glo solution (CellTiter-Glo® Luminescent Cell Viability Assay; Promega, #G7571) was prepared and added to the cells. Cell viability was determined by the luminescence signal, which was measured after 10 min of incubation at 22° C. and 400 rpm with the Envision reader. IC50 values were calculated using the Graphpad Prism software.

The next assay has as its system KE97. The assay is described as above. Particulars: KE97, CCR7 receptor levels ~100,000. The assay is classed as cell-based. On the procedure: as §4
A further assay has as its system CML-T1. Described as above. Particulars: CML-T1, CCR7 receptor levels ~29,000. The assay is classed as cell-based. On the procedure: as §4
(§5) To assess the ADCs for target-specificity and receptor-level dependency, ADC activity was tested across cell lines with different CCR7 receptor levels. […] Cell lines were chosen based on similar sensitivity to payload.

In a further assay the test system is DND-41. Described as above. The assay is classed as cell-based. Particulars: DND-41 (T cell leukemia), CCR7 receptor levels 1,700. On the procedure:
as §4, §5

Another assay relates to NCI-H82. The assay is described as above. The note with it: NCI-H82 (Small cell lung cancer), CCR7 receptor levels 0. It is filed as cell-based. As to the method: as §4, §5
For a further assay, the system named is SR786. The assay is described as above. It is filed as cell-based. The note with it: SR786, CCR7 receptor levels ~28,000. As to the method:
as §4, §5

B1: 121G12 humanized CysMab: humanized anti-CCR7 antibody 121G12, CysMab, Fc wild type (antibody, V domains shown)
VH: EVQLVESGGGLVKPGGSLRLSCAASGFTFSTYAMSWVRQAPGKGLEWVATISDAGSYSYYPDNVKGRFTISRDNAKNSLYLQMNSLRAEDTAVYYCARRGSRYEEYYVMDYWGQGTTVTVSS
VL: EIVLTQSPATLSVSPGERVTLSCRASQSISNNLHWYQQKPGQAPRLLIKYASQSISGIPARFSGSGSGTDFTLTISSVEPEDFGVYFCQQSSSWLTFGQGTKLEIK
Consider B1, for which the “ADCC activity; IC50 (nM)” value in [1] is given as “Yes, but insufficient”. For the same molecule, the “Apparent FACS binding (at 5 ug/ml)” value is “Binding” in [2]; “No binding” in the assay on NIH3T3 cells; “No binding” in assay [3]; “No binding” with CCR8 (CHO-CCR8); “No binding” with CXCR4 (HEK293-CXCR4).

B2: 674J13.CysMab.DAPA.AURIX2 (conjugate)
heavy: DVQLQESGPGLVKPSQTLSLTCTVSGYSITSGYSWHWIRQHPGKGLEWMAHIHSSGSTNYNPSLKSRITISRDTSKNQFSLKLSSVTAADTAVYYCARGGVQAFAYWGQGTLVTVSSASTKGPSVFPLAPSSKSTSGGTAALGCLVKDYFPCPVTVSWNSGALTSGVHTFPAVLQSSGLYSLSSVVTVPSSSLGTQTYICNVNHKPSNTKVDKRVEPKSCDKTHTCPPCPAPELLGGPSVFLFPPKPKDTLMISRTPEVTCVVVAVSHEDPEVKFNWYVDGVEVHNAKTKPREEQYNSTYRVVSVLTVLHQDWLNGKEYKCKVSNKALAAPIEKTISKAKGQPREPQVYTLPPSREEMTKNQVSLTCLVKGFYPCDIAVEWESNGQPENNYKTTPPVLDSDGSFFLYSKLTVDKSRWQQGNVFSCSVMHEALHNHYTQKSLSLSPGK
light: EIVLTQSPATLSASPGERVTMSCSASSSVIYMHWYQQKPGQAPRRWIYDTSKLASGVPARFSGSGSGTDYTLTISSMEPEDAAVYYCQQWSSNPLTFGQGTKLEIKRTVAAPSVFIFPPSDEQLKSGTASVVCLLNNFYPREAKVQWKVDNALQSGNSQESVTEQDSKDSTYSLSSTLTLSKADYEKHKVYACEVTHQGLSSPVTKSFNRGEC
Consider B2, for which the “AMAX, cell viability assay” value is on record as greater than 95% with DEL; greater than 95% in the assay on KE97; 60% in the assay with CML-T1; less than 20% AMAX in the assay on DND-41; 90% with SR786. In addition, the “ADC activity in cell viability assay; IC50 (nM)” value in the assay with NCI-H82 was “No killing”.
